Target: C1 esterase inhibitor, human plasma-derived (human) (UniProt P05155)
Experiment: Western blot of serially diluted C11NH/BSA probed with 20 µg/mL StcE E447D

Chain of C1 esterase inhibitor, human plasma-derived (human) (P05155 23-500 limits assumed): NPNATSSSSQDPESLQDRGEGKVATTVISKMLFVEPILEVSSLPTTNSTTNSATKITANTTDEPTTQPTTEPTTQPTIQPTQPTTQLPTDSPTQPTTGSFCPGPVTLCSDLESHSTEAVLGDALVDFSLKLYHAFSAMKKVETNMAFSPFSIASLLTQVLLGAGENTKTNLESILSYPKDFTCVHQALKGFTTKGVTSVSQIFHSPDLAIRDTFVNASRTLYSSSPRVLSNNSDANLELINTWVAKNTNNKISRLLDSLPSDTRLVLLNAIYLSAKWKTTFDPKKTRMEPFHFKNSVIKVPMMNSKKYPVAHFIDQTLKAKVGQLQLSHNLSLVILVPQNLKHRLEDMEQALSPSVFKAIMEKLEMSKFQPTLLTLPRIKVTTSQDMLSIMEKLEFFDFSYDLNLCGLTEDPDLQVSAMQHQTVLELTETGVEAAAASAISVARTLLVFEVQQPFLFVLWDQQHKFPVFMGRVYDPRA

StcE E447D, catalytically inactive point mutant of StcE, N-terminal His-tagged (from UniProt O82882 36-898) (enzyme; other documents disagree on this pair)
lowest amount of C11NH with visible signal: 0.03 µg

Reference: patent publication US20220003777A1
